Measurements as given in article PMC8675929 (PLoS Pathogens, 2021).

T1: 36mer repeat peptide (NANP)9 (Plasmodium falciparum repeat, synthetic …)
T1 construct: printed as (NANP)9, 36mer; nine NANP tetrapeptides of the central repeat region of Plasmodium falciparum circumsporozoite protein; source: created by Genscript, as previously described [21,40]
T1 chain: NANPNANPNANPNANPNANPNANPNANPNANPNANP

B1: L15 (antibody, V domains shown)
VH: EVQLVESGGVVVQPGGSLRLSCAASGFTFDDYTMHWVRQAPGKGLEWVSLISWDGGTTYYADSVKGRFTISRDNSKNSLYLRMNSLRTEDTALYYCAKGLVAQWLRGDYYYGLHVWGQGTTVTVSS
VL: QSALTQPASVSGSPGQSITISCTGTSSDVGAYNSVSWYQQHPGKAPKLMIYDVTNRPSGVSNRFSGSKSGNTASLTISGLQAEDEADYYCSSYTITNTLVFGGGTKLTVL
B2: L7 (antibody, V domains shown)
VH: QLQLQESGPGLVKPSETLSLTCTVSGGSISSSNYYWDWIRQPPGKGLEWIGSINYSGSTYYNPSLKSRVTISVDTSKIQFSLKMSSVTAADTAVYYCARRRVDFWSGYNWFDPWGQGTLVTVSS
VL: QPVLTQPPSASASMGASVTLTCTLSSGYSKYKVDWYQQRPGKGPRFVMRAGTGGIVGSKGDGIPDRFSVLGSGLNRYLTIKNIQEEDESDYHCGADHGSGSNFVYVFGTGTKVTIL
B3: L4 (antibody, V domains shown)
VH: QLQLQESGPRLVKPSETLSLTCTVSGGSISRTSYYWDWIRQPPGKGLEWIGSIYYRGSTYHNPSLKSRVTISVDTSKNQFSLRLTSVTAADTAVYYCARPKNLGVVAATNWFDPWGQGTLVTVSS
VL: QSVLTQPPSVSGAPGQRVTISCTGSSSNIGATYDVHWYQQLPGTAPKLLIYDNNNRPSGVPDRFSGSKSGTSASLAITGLQADDEADYYCQSYDSSLSGVVFGGGTKLTVL
B4: L20 (antibody, V domains shown)
VH: EVQLVESGGGLVQPGRSLRLSCAASGFTFDDYAMHWVRQAPGKGLEWVSGINWNSGSIGYADSVKGRFTISRDNARNSLYLQMNGLRAEDTAFYYCAKDLRAYYYGSGSPWGFHHWGQGTLVTVSS
VL: QSALTQPPSASGSPGQSVTISCTGTSSDVGGYNYVSWYEQHPGKAPKLLIYEVSKRPSGVPDRFSGSKSGNTASLTVSGLQAEDEADYYCSSYAGSNNVVFGGGTKLTVL
B5: 1710 (antibody, V domains shown)
VH: EVQLQESGGGLVKPGGSLRLSCAASGFTFSSYSMNWVRQAPGKGLEWVSSITSSSSYIYYADSVKGRFTISRDNAKNSLYLQMNSLRAEDTAVYYCARDPGIAAADNHWFDPWGQGTLVTVSS
VL: not shown

Biological target: T2, full-length recombinant PfCSP (FL-rCSP) (Plasmodium falciparum 3D7 (clone of …, UniProt Q7K740))
T2 construct: also called PfCSP_3D7
Test: ELISA
Conditions: both partners purified

Row | Binder | binding result
1 | B1 | binds
2 | B2 | binds
3 | B3 | binds
4 | B4 | binds

Biological target: T3, recombinant C-CSP construct (PfCSP_3D7 amino acids 295–374) (Plasmodium falciparum 3D7, UniProt Q7K740)
T3 construct: also called C-terminal domain of PfCSP
Test: ELISA
Conditions: both partners purified

Row | Binder | binding result
5 | B1 | binds
6 | B2 | binds
7 | B3 | binds
8 | B5 | binds
9 | B4 | binds

Biological target: T4, N-CSP (N-terminus of PfCSP) (Plasmodium falciparum 3D7, UniProt Q7K740)
T4 construct: source: created by Genscript, as previously described [21,40]
Test: ELISA
Conditions: both partners purified

Row | Binder | binding result
10 | B1 | no binding (tested: 5.0 μg/mL)
11 | B2 | no binding (tested: 5.0 μg/mL)
12 | B3 | no binding (tested: 5.0 μg/mL)
13 | B5 | no binding (tested: 5.0 μg/mL)
14 | B4 | no binding (tested: 5.0 μg/mL)

Biological target: full-length PfCSP on transgenic P. berghei sporozoites (Pb-PfCSP-GFP/Luc-SPZ) (Plasmodium falciparum, 3D7 (transgene …, UniProt Q7K740))
Test: flow cytometry on cells; 20 μg/mL mAb on midgut (MG) Pb-PfCSP-SPZ; goat anti-human IgG-Alexa Fluor 647
Conditions: one partner purified

Row | Binder | binding result
15 | B1 | binds

Biological target: T1, 36mer repeat peptide (NANP)9
Test: ELISA; antigen coated at 0.5 μg/mL in bicarbonate buffer overnight at 4°C; mAbs 5x10^-7–5.0 μg/mL, 2 hrs at 37°C; HRP-conjugated goat anti-human IgG; AUC of OD450
Conditions: both partners purified

Row | Binder | binding result
16 | B1 | no binding (tested: 5.0 μg/mL)
17 | B2 | no binding (tested: 5.0 μg/mL)
18 | B3 | no binding (tested: 5.0 μg/mL)
19 | B4 | no binding (tested: 5.0 μg/mL)
